Reference: article PMC2120827

Target: GST-Sox17 (mouse, UniProt Q61473 24-366)
Assay: EMSA

GST-Sox17, sequence (Q61473 24-366): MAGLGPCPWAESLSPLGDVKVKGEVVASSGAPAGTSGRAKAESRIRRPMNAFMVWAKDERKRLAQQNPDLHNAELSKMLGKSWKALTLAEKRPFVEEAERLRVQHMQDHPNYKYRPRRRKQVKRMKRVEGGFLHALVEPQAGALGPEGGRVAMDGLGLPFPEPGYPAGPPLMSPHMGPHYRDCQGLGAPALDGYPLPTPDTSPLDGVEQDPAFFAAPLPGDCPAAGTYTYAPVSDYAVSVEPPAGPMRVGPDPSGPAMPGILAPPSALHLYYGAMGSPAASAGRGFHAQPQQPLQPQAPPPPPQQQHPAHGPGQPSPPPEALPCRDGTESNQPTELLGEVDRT

GCAGAACAATGGCGTTAGCTCGCCATTGTTCTG (structured_DNA) [SCS6]
binding result: binds
